# Positions count from the first letter of the chain named.
# B1: J-19.h1 (antibody, human IgG4 S228P, kappa, V domains shown)
# VH: QITLKESGPTLVKPTQTLTLTCTFSGFSLNTYAMGVSWIRQPPGKALEWLASIWWNGNKYNNPSLKSRLTVTKDTSKNQVVLTMTNMDPVDTATYYCAHSRIIRFTDYVMDAWGQGTLVTVSS
# VL: DIQMTQSPSSLSTSVGDRVTITCRASEDIYNDLAWYQQKPGKAPKLLIYNANSLHTGVASRFSGSGSGTDFTFTISSLQPEDVATYFCQQYYDYPLTFGQGTKLEIKR
# notes: Humanized, human IgG4 backbone
# B2: J-19.h3 (antibody, human IgG4 S228P, kappa, V domains shown)
# VH: B1 VH with I2V, T10S, V71I, T83K, M84V, V90A, L118T
# VL: DIVMTQSPSSLSASVGDTVTITCRASEDIYNDLAWYQQKPGKAPQLLLYNANSLHTGVPSRFSGSGSGTDYTLTISTLQPEDFATYYCQQYYDYPLTFGPGTKVHIKR
# notes: as for B1
# B3: J-19.h2 (antibody, human IgG4 S228P, kappa, V domains shown)
# VH: B1 VH
# VL: B2 VL
# notes: as for B1
# B4: J-19.h4 (antibody, human IgG4 S228P, kappa, V domains shown)
# VH: B1 VH with I2V, T10A, Q16H, V71I, T72S, V90E, Y95F, Q115R, L118T
# VL: B2 VL
# notes: as for B1
# Biological target: T1, human LILRA5 (human, UniProt A6NI73 42-299)
# T1 construct: Over-expressed on CHO-s cells; also called hLILRA5
# Experiment: flow cytometry, LILRA5 CHOs
# Method: (§1) To test for specificity to hLILRB2 and not towards any of the ten LILR family members, a multiplexed cell-based barcoding approach was used by staining cells with Far Red and/or Violet Cell Trace dyes (Thermo Scientific) according to manufacturer's protocol or left unstained. In brief, cells were washed twice with 1×DPBS and then incubated with diluted dye in 1×DPBS for 20 minutes at 37° C., mixing gently every 5-10 minutes. Dye labeling was quenched by adding equal volume of 100% HI-FBS (Sigma) to the cells. Note that LILRB1, LILRB2, LILRB3, LILRB4, and LILRB5 cell lines are also GFP-positive, while LILRA1, LILRA2, LILRA3, LILRA4, LILRA5, and LILRA6 cell lines are GFP-negative. The cells were then washed twice in 1×DPBS and then all 11 cell lines were combined per well in a 96-well round bottom tissue-culture treated plate. At least 25×10³ cells of each cell-line were plated per well. Cells were then re-suspended in primary antibody (anti-LILRB2 mAbs or control) prepared in FACS buffer (1×DPBS containing 2% HI-FBS (Sigma)+0.05% Sodium Azide). After incubation at 4° C. for 30 minutes, cells were washed twice with 1×DPBS and re-suspended in anti-human IgG-PE (BioLegend) diluted 1:200 in FACS buffer. Following a 30 minute incubation at 4° C., protected from light, cells were washed in 1×DPBS and re-suspended in fix buffer (1.5% paraformaldehyde diluted in 1×DPBS). Samples were analyzed using the Celesta flow cytometer analyzer (BD Biosciences). Geometric mean fluorescence intensity (gMFI) of PE was determined for each antibody across each cell line. Background MFI was detected with isotype control and relative binding of antibodies tested was measured as a fold over isotype.
# T1 sequence (A6NI73 42-299 limits assumed): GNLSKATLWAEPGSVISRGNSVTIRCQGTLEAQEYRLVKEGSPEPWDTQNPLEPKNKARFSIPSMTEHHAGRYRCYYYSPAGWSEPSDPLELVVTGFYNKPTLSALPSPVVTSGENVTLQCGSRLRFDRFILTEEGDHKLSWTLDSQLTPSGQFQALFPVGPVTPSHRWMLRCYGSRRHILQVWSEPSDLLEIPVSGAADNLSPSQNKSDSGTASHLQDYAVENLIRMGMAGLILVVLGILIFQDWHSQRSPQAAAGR
Binder,binding (fold over iso),binding result
B1,1.34,no binding
B2,1.22,no binding
B3,0.86,no binding

# Biological target: T2, human LILRA6 (human, UniProt Q6PI73 24-481)
# T2 construct: Over-expressed on CHO-s cells; also called hLILRA6
# Experiment: flow cytometry, LILRA6 CHOs
# Method: as §1
# T2 sequence (Q6PI73 24-481 limits assumed): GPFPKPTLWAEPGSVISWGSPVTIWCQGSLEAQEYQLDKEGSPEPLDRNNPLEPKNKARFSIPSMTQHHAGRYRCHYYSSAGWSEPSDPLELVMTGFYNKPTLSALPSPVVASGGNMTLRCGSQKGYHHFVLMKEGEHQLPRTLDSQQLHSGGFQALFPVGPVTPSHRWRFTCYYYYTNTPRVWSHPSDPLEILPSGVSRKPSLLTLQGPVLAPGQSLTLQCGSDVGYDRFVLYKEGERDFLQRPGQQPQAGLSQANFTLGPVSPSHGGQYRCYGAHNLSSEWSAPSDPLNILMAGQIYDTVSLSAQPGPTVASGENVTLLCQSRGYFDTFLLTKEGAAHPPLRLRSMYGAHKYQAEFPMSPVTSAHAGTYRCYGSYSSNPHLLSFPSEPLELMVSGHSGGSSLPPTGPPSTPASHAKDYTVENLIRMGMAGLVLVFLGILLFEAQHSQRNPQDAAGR
Binder,binding (fold over iso),binding result
B1,0.98,no binding
B2,1.03,no binding
B3,0.74,no binding
B4,1.27,no binding

# Biological target: T3, human LILRB1 (human, UniProt Q8NHL6 24-650)
# T3 construct: Over-expressed on CHO-s cells; also called hLILRB1
# Experiment: flow cytometry, LILRB1 CHOs
# Method: as §1
# T3 sequence (Q8NHL6 24-650 limits assumed): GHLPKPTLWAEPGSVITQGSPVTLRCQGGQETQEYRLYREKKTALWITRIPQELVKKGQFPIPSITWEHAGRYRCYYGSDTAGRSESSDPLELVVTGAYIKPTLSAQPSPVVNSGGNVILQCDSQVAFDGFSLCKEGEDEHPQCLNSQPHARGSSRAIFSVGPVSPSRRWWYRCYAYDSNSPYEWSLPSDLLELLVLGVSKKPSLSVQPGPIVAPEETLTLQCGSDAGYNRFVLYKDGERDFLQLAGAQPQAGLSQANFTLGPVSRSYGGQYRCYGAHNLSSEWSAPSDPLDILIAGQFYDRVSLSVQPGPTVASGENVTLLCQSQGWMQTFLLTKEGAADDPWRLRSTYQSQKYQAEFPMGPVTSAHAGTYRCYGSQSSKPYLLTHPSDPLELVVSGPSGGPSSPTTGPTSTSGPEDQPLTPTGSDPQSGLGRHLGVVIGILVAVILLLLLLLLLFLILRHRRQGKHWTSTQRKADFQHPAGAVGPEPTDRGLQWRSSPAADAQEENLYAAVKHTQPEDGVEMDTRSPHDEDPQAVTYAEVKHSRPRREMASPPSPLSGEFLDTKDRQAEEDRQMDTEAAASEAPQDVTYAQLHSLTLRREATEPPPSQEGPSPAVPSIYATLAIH
Binder,binding (fold over iso),binding result
B1,0.79,no binding
B2,0.84,no binding
B3,0.73,no binding
B4,0.87,no binding

# Biological target: T4, human LILRB2 expressed on cells (human, UniProt Q8N423 22-597)
# Experiment: cell-based or functional assay
# T4 sequence (Q8N423 other isoform, or with tags, fused parts or gaps limits assumed): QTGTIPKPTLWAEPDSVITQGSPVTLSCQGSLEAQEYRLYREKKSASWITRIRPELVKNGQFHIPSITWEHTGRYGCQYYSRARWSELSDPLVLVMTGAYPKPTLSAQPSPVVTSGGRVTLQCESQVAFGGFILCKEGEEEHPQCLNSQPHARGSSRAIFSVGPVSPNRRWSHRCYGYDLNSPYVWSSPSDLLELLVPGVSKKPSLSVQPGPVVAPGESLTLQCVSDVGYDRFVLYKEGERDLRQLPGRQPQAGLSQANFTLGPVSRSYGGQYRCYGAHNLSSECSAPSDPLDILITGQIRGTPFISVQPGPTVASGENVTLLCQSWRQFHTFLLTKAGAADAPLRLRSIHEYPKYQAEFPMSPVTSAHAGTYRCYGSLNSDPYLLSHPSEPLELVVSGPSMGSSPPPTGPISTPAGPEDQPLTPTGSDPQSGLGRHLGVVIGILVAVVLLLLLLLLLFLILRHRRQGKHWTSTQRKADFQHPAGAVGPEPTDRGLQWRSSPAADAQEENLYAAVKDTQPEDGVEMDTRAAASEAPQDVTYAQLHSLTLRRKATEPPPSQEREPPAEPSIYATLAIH
Binder,"EC50, IL-6 production by LPS-stimulated HMDMs [nM]","EC50, TNFa production by LPS-stimulated HMDMs [nM]","IC50, CCL2 production by LPS-stimulated HMDMs [nM]","IC50, IL-10 production by LPS-stimulated HMDMs [nM]"
B1,0.085,0.076,0.005,0.45
B2,0.083,0.087,5.9,0.27
B3,0.186,0.12,0.011,0.702
B4,0.091,0.084,0.01,0.19

# Biological target: T5, human LILRB3 (human, UniProt O75022 24-631)
# T5 construct: Over-expressed on CHO-s cells; also called hLILRB3
# Experiment: flow cytometry, LILRB3 CHOs
# Method: as §1
Binder,binding (fold over iso),binding result
B1,1,no binding
B2,0.97,no binding
B3,0.81,no binding
B4,1.24,no binding

# Biological target: T6, human LILRA4 (human, UniProt P59901 24-499)
# T6 construct: Over-expressed on CHO-s cells; also called hLILRA4
# Experiment: flow cytometry, LILRA4 CHOs
# Method: as §1
# T6 sequence (P59901 other isoform, or with tags, fused parts or gaps limits assumed): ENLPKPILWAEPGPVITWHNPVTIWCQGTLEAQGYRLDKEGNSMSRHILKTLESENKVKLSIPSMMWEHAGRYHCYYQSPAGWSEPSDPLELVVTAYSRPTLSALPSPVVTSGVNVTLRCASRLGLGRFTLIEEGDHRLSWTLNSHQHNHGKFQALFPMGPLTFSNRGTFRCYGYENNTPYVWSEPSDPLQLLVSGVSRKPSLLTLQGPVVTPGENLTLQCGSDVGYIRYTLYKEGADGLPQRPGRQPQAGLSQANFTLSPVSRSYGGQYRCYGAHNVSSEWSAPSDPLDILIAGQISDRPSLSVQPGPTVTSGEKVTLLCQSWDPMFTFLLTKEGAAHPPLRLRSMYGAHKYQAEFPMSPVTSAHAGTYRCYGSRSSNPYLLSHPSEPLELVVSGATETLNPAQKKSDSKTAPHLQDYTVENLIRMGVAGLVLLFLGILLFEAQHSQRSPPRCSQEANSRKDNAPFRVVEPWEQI
Binder,binding (fold over iso),binding result
B1,0.95,no binding
B2,0.99,no binding
B3,0.84,no binding
B4,1.09,no binding

# Biological target: T4, human LILRB2 expressed on cells
# Experiment: flow cytometry, binding to hLILRB2 CHOs
row,Binder,EC50 [nM]
1,B1,0.032
2,B2,0.0325
3,B3,0.447
4,B4,0.00175

# Biological target: T7, human LILRB5 (human, UniProt O75023 24-590)
# T7 construct: Over-expressed on CHO-s cells; also called hLILRB5
# Experiment: flow cytometry, LILRB5 CHOs
# Method: as §1
# T7 sequence (O75023 24-590 P542R limits assumed): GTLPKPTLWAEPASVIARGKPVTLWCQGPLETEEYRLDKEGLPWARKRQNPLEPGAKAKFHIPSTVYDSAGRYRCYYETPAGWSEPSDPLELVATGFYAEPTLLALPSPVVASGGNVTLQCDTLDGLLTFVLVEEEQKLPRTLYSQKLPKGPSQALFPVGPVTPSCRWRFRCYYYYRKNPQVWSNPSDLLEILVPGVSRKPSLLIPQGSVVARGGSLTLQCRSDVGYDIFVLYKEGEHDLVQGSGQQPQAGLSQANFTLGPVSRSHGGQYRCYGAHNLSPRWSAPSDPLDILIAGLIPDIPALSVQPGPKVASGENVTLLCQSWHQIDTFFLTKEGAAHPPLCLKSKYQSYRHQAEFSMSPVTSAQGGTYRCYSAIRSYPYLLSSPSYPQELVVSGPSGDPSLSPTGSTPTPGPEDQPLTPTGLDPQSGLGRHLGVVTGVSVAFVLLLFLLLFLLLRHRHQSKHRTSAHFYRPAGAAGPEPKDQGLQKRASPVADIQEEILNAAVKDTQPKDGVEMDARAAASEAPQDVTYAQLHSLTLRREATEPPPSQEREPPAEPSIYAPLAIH
Binder,binding (fold over iso),binding result
B1,1.01,no binding
B2,0.95,no binding
B3,0.76,no binding
B4,1.27,no binding

# Biological target: T4, human LILRB2 expressed on cells
# Experiment: HLA-A2:LILRB2 blocking; HLA-A2 tetramer on primary human macrophages, flow cytometry
# Method: (§2) The potency of select humanized variants in blocking the interaction of HLA-G and HLA-A2 with primary human macrophage-expressed hLILRB2 were assessed. Primary human monocytes were differentiated into macrophages in the presence of M-CSF. After seven days of differentiation, 1×10⁵ HMDMs were plated in 96-well round-bottom tissue culture-treated plate and washed twice with 1×DPBS (Gibco) and then incubated with 50 μL primary antibody (anti-LILRB2 mAbs or control) prepared in FACS buffer (1×DPBS containing 2% HI-FBS (Sigma)+0.05% Sodium Azide). After incubation with mAbs for 30 minutes at 4° C., cells were washed twice in FACS buffer and then resuspended in 50 μL of FACS buffer containing 5 μg/mL APC-conjugated HLA-G or HLA-A2 tetramer (Fred Hutch). Cells were incubated protected from light for 30-60 minutes at 4° C. After incubation with tetramer, cells were washed in FACS buffer and re-suspended in fix buffer (1.5% paraformaldehyde diluted in 1×DPBS). Samples were analyzed using the Celesta flow cytometer analyzer (BD Biosciences).
row,Binder,EC50 [nM]
1,B1,0.083
2,B2,0.103
3,B3,0.087
4,B4,0.106

# Biological target: human LILRB2-His (human, UniProt Q8N423 22-460)
# Experiment: SPR, Sierra Sensors MASS-2; antibody captured on anti-human Fc, LILRB2-His 65 to 0.27 nM, 1:1 Langmuir fit
# Method: Using a Mass-2 (Sierra Sensors) high capacity amine chip preimmobilized with AffiniPure Goat Anti-Human IgG, Fcγ Fragment Specific antibody, humanized antibodies were captured on the anti-human surface and then binding to human LILRB2-His was measured by flowing six different concentrations from 65 to 0.27 nM of the analyte over the antibody surface. The anti-LILRB2 surface was removed (10 mM Glycine, pH 2.0) and recaptured between all concentrations or buffer only cycles. The data was analyzed using the Sierra Analyzer software (version 3.1.14). All curves were double subtracted and fit to a 1:1 Langmuir Fit.
# human LILRB2-His, sequence (Q8N423 other isoform, or with tags, fused parts or gaps): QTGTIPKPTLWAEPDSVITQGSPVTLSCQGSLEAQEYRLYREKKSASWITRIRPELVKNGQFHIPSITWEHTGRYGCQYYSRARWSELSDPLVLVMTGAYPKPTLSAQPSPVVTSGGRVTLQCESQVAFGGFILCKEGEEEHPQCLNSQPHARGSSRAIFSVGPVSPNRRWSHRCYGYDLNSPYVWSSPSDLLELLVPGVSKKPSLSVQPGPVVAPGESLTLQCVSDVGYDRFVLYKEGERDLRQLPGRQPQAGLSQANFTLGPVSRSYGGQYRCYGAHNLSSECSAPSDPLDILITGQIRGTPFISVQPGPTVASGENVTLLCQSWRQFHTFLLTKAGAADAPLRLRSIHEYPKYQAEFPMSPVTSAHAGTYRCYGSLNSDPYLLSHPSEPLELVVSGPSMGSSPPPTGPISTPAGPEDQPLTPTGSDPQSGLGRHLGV
Binder,Kd [nM],koff [s⁻¹],kon [M⁻¹ s⁻¹]
B1,2.73,0.00107,391000
B2,1.96,0.00101,518000
B3,4.58,0.00238,521000
B4,2.33,0.0012,513000

# Biological target: T8, human LILRA1 (human, UniProt O75019 17-489)
# T8 construct: Over-expressed on CHO-s cells; also called hLILRA1
# Experiment: flow cytometry, LILRA1 CHOs
# Method: as §1
# T8 sequence (O75019 17-489 limits assumed): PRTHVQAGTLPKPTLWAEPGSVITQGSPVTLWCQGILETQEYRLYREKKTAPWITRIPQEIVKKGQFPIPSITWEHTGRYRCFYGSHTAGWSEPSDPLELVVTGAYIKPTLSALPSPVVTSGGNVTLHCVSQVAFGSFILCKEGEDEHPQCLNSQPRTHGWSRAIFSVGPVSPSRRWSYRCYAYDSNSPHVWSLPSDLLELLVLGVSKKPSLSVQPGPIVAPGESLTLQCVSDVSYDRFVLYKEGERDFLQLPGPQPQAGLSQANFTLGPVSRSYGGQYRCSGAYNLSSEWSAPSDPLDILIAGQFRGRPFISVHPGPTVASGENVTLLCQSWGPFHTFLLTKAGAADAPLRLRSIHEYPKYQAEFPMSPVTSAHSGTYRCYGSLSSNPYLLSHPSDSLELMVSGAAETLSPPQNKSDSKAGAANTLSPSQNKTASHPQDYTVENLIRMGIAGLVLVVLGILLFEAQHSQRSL
Binder,binding (fold over iso),binding result
B1,0.95,no binding
B2,1,no binding
B3,0.89,no binding
B4,0.99,no binding

# Biological target: T9, human LILRB4 (human, UniProt Q8NHJ6 22-448)
# T9 construct: Over-expressed on CHO-s cells; also called hLILRB4
# Experiment: flow cytometry, LILRB4 CHOs
# Method: as §1
Binder,binding (fold over iso),binding result
B1,1.22,no binding
B2,1.16,no binding
B3,0.9,no binding

# Biological target: T10, human LILRA2 (human, UniProt Q8N149 24-483)
# T10 construct: Over-expressed on CHO-s cells; also called hLILRA2
# Experiment: flow cytometry, LILRA2 CHOs
# Method: as §1
# T10 sequence (Q8N149 24-483 S135L limits assumed): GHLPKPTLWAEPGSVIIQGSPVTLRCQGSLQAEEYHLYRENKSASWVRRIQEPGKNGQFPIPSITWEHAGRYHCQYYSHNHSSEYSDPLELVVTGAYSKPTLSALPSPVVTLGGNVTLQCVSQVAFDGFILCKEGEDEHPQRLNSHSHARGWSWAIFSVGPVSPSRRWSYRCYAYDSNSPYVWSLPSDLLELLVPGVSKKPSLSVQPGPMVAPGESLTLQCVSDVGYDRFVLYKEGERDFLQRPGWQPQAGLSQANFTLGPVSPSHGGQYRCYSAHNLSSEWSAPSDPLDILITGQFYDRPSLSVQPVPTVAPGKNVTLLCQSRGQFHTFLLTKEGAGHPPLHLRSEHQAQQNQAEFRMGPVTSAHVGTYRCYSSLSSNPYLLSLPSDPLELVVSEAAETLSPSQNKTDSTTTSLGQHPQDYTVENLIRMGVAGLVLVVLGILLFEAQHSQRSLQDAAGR
Binder,binding (fold over iso),binding result
B1,0.88,no binding
B2,0.83,no binding
B3,0.66,no binding
B4,0.96,no binding

# Biological target: T11, human LILRA3 (human, UniProt Q8N6C8 24-439)
# T11 construct: Over-expressed on CHO-s cells; also called hLILRA3
# Experiment: flow cytometry, LILRA3 CHOs
# Method: as §1
# T11 sequence (Q8N6C8 24-439 limits assumed): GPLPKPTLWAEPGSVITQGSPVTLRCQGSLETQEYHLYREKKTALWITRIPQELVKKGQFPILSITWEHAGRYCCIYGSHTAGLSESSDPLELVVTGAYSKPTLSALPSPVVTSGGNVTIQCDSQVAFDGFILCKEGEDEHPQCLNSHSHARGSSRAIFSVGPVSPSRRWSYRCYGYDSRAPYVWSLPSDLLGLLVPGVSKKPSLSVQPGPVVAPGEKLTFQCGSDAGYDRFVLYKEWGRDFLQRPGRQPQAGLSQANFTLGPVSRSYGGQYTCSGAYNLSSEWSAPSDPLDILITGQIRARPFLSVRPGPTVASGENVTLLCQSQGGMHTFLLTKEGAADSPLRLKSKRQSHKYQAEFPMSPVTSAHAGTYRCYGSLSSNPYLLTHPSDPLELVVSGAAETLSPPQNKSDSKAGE
Binder,binding (fold over iso),binding result
B1,0.97,no binding
B2,0.92,no binding
B3,0.83,no binding
B4,0.99,no binding

# Biological target: T4, human LILRB2 expressed on cells
# Experiment: flow cytometry, LILRB2 CHOs
row,Binder,binding (fold over iso)
1,B1,73.2
2,B2,79.4
3,B3,74.5
4,B4,76.5

# Biological target: T4, human LILRB2 expressed on cells
# Experiment: HLA-G:LILRB2 blocking; HLA-G tetramer on primary human macrophages, flow cytometry
# Method: as §2
row,Binder,EC50 [nM]
1,B1,0.162
2,B2,0.113
3,B3,0.122
4,B4,0.131
